Here are results for 2 substances from patent publication US20100062011A1.

In experiment [1] the target is TetT3L, T-cell epitope peptide derived from tetanus toxoid.
For experiment [2], the target named is DTL, T-cell epitope peptide derived from diphtheria toxoid. In words: ELISA, serum dilutions on coated DTL peptide; control serum.
Experiment [3] addresses Peptide having the amino acid sequence of the 298th to 312th of Gag protein derived from HIV-1 (HIV-1). In words: ELISA, serial 2-fold serum dilutions on coated Gag peptide; negative control serum.
In experiment [4] the target is Amyloid β-peptide consisting of 42 amino acid residues (human). In words: ELISA, serial 2-fold serum dilutions on coated Aβ (SEQ ID NO:2); negative control serum.

For “Serum of BALB/c mice given neither peptide nor binary mixed vaccine (Experiment 2) (antibody)”, the antibody titer in experiment [1] and in experiment [2] was 3 throughout.

Take “Antiserum from BALB/c mice not vaccinated (negative control, Experiment 1) (antibody)”: the results for the antibody titer in experiment [3] and in experiment [4] were 5.7 and 9.2, respectively.
